# Data from patent US20090280138A1 (OXFORD BIOMEDICA UK, published 2009).
# Biological target: T1, MHC class I molecule A*0301 (biotin (bound to streptavidin-coated plate))
# T1 construct: also called A3; HLA-A3
# Assay: iTopia iScore
# Protocol: (§1) The 9 mers were tested for Peptide Binding, Off Rate and Affinity using iTopia Epitope Discovery System in accordance with the manufacturer's instructions. Briefly, 96 well microtitre plates coated with MHC molecules representing different MHC alleles are used to identify candidate peptides. […] Determinations are performed in duplicate using an ELISA plate reader and included allele specific positive controls.
# (§2) Finally, multiparametric analysis is performed on the results from these assays and an iScore is generated. The iScore represents a measure of the overall quality of peptide-MHC binding, enabling candidate peptides to be ranked in order of binding quality and allowing rational prioritisation of peptides for functional cellular follow-up studies.
row,Binder,iScore
1,ELAALNLSG [5T4 9-mer peptide 60 ELAALNLSG],0
2,AARTVKCVN [5T4 9-mer peptide 36 AARTVKCVN],0
3,TGNQLAVLP [5T4 9-mer peptide 50 TGNQLAVLP],0
4,ECSEAARTV [5T4 9-mer peptide 34 ECSEAARTV],0
5,NRNLTEVPT [5T4 9-mer peptide 40 NRNLTEVPT],0
6,LCECSEAAR [5T4 9-mer peptide 33 LCECSEAAR],0
7,FLTGNQLAV [5T4 9-mer peptide 49 FLTGNQLAV],0
8,GSRLDEVRA [5T4 9-mer peptide 64 GSRLDEVRA],0
9,AYVRNLFLT [5T4 9-mer peptide 46 AYVRNLFLT],0
10,LPAYVRNLF [5T4 9-mer peptide 45 LPAYVRNLF],0
11,AALNLSGSR [5T4 9-mer peptide 61 AALNLSGSR],0
12,TEVPTDLPA [5T4 9-mer peptide 42 TEVPTDLPA],0
13,RRPPLAELA [5T4 9-mer peptide 57 RRPPLAELA],0
14,PDQCPALCE [5T4 9-mer peptide 30 PDQCPALCE],0
15,NLTEVPTDL [5T4 9-mer peptide 41 NLTEVPTDL],0
16,VLPAGAFAR [5T4 9-mer peptide 53 VLPAGAFAR],0.027
17,TDLPAYVRN [5T4 9-mer peptide 44 TDLPAYVRN],0
18,SEAARTVKC [5T4 9-mer peptide 35 SEAARTVKC],0

row,Binder,iScore
1,LNLSGSRLD [5T4 9-mer peptide 62 LNLSGSRLD],0
2,PALCECSEA [5T4 9-mer peptide 32 PALCECSEA],0
3,GAFARRPPL [5T4 9-mer peptide 55 GAFARRPPL],0
4,VKCVNRNLT [5T4 9-mer peptide 38 VKCVNRNLT],0
5,VRNLFLTGN [5T4 9-mer peptide 47 VRNLFLTGN],0
6,NLFLTGNQL [5T4 9-mer peptide 48 NLFLTGNQL],0
7,VPTDLPAYV [5T4 9-mer peptide 43 VPTDLPAYV],0
8,FARRPPLAE [5T4 9-mer peptide 56 FARRPPLAE],0
9,CVNRNLTEV [5T4 9-mer peptide 39 CVNRNLTEV],0
10,LAVLPAGAF [5T4 9-mer peptide 52 LAVLPAGAF],0
11,LAELAALNL [5T4 9-mer peptide 59 LAELAALNL],0
12,PPLAELAAL [5T4 9-mer peptide 58 PPLAELAAL],0
13,RLDEVRAGA [5T4 9-mer peptide 65 RLDEVRAGA],0.057
14,RTVKCVNRN [5T4 9-mer peptide 37 RTVKCVNRN],0
15,NQLAVLPAG [5T4 9-mer peptide 51 NQLAVLPAG],0
16,QCPALCECS [5T4 9-mer peptide 31 QCPALCECS],0
17,PAGAFARRP [5T4 9-mer peptide 54 PAGAFARRP],0
18,LSGSRLDEV [5T4 9-mer peptide 63 LSGSRLDEV],0

# Biological target: T2, MHC class I molecule B*0702 (biotin (bound to streptavidin-coated plate))
# T2 construct: also called B7; HLA-B7
# Assay: iTopia iScore
# Protocol: as §1, §2
row,Binder,iScore
1,ELAALNLSG [5T4 9-mer peptide 60 ELAALNLSG],0
2,AARTVKCVN [5T4 9-mer peptide 36 AARTVKCVN],0.059
3,TGNQLAVLP [5T4 9-mer peptide 50 TGNQLAVLP],0
4,ECSEAARTV [5T4 9-mer peptide 34 ECSEAARTV],0
5,NRNLTEVPT [5T4 9-mer peptide 40 NRNLTEVPT],0
6,LCECSEAAR [5T4 9-mer peptide 33 LCECSEAAR],0
7,FLTGNQLAV [5T4 9-mer peptide 49 FLTGNQLAV],0
8,GSRLDEVRA [5T4 9-mer peptide 64 GSRLDEVRA],0
9,AYVRNLFLT [5T4 9-mer peptide 46 AYVRNLFLT],0
10,LPAYVRNLF [5T4 9-mer peptide 45 LPAYVRNLF],0.389
11,AALNLSGSR [5T4 9-mer peptide 61 AALNLSGSR],0
12,TEVPTDLPA [5T4 9-mer peptide 42 TEVPTDLPA],0
13,RRPPLAELA [5T4 9-mer peptide 57 RRPPLAELA],0
14,PDQCPALCE [5T4 9-mer peptide 30 PDQCPALCE],0
15,NLTEVPTDL [5T4 9-mer peptide 41 NLTEVPTDL],0
16,VLPAGAFAR [5T4 9-mer peptide 53 VLPAGAFAR],0
17,TDLPAYVRN [5T4 9-mer peptide 44 TDLPAYVRN],0
18,SEAARTVKC [5T4 9-mer peptide 35 SEAARTVKC],0

row,Binder,iScore
1,LNLSGSRLD [5T4 9-mer peptide 62 LNLSGSRLD],0
2,PALCECSEA [5T4 9-mer peptide 32 PALCECSEA],0
3,GAFARRPPL [5T4 9-mer peptide 55 GAFARRPPL],0.359
4,VKCVNRNLT [5T4 9-mer peptide 38 VKCVNRNLT],0
5,VRNLFLTGN [5T4 9-mer peptide 47 VRNLFLTGN],0
6,NLFLTGNQL [5T4 9-mer peptide 48 NLFLTGNQL],0
7,VPTDLPAYV [5T4 9-mer peptide 43 VPTDLPAYV],0
8,FARRPPLAE [5T4 9-mer peptide 56 FARRPPLAE],0
9,CVNRNLTEV [5T4 9-mer peptide 39 CVNRNLTEV],0.093
10,LAVLPAGAF [5T4 9-mer peptide 52 LAVLPAGAF],0.049
11,LAELAALNL [5T4 9-mer peptide 59 LAELAALNL],0.074
12,PPLAELAAL [5T4 9-mer peptide 58 PPLAELAAL],0.145
13,RLDEVRAGA [5T4 9-mer peptide 65 RLDEVRAGA],0.032
14,RTVKCVNRN [5T4 9-mer peptide 37 RTVKCVNRN],0
15,NQLAVLPAG [5T4 9-mer peptide 51 NQLAVLPAG],0
16,QCPALCECS [5T4 9-mer peptide 31 QCPALCECS],0
17,PAGAFARRP [5T4 9-mer peptide 54 PAGAFARRP],0
18,LSGSRLDEV [5T4 9-mer peptide 63 LSGSRLDEV],0.107

# Biological target: T3, MHC class I molecule A*0101 (biotin (bound to streptavidin-coated plate))
# T3 construct: also called A1; HLA-A1
# Assay: iTopia iScore
# Protocol: as §1, §2
row,Binder,iScore
1,ELAALNLSG [5T4 9-mer peptide 60 ELAALNLSG],0
2,AARTVKCVN [5T4 9-mer peptide 36 AARTVKCVN],0
3,TGNQLAVLP [5T4 9-mer peptide 50 TGNQLAVLP],0
4,ECSEAARTV [5T4 9-mer peptide 34 ECSEAARTV],0
5,NRNLTEVPT [5T4 9-mer peptide 40 NRNLTEVPT],0
6,LCECSEAAR [5T4 9-mer peptide 33 LCECSEAAR],0
7,FLTGNQLAV [5T4 9-mer peptide 49 FLTGNQLAV],0
8,GSRLDEVRA [5T4 9-mer peptide 64 GSRLDEVRA],0
9,AYVRNLFLT [5T4 9-mer peptide 46 AYVRNLFLT],0
10,LPAYVRNLF [5T4 9-mer peptide 45 LPAYVRNLF],0
11,AALNLSGSR [5T4 9-mer peptide 61 AALNLSGSR],0
12,TEVPTDLPA [5T4 9-mer peptide 42 TEVPTDLPA],0
13,RRPPLAELA [5T4 9-mer peptide 57 RRPPLAELA],0
14,PDQCPALCE [5T4 9-mer peptide 30 PDQCPALCE],0
15,NLTEVPTDL [5T4 9-mer peptide 41 NLTEVPTDL],0
16,VLPAGAFAR [5T4 9-mer peptide 53 VLPAGAFAR],0
17,TDLPAYVRN [5T4 9-mer peptide 44 TDLPAYVRN],0
18,SEAARTVKC [5T4 9-mer peptide 35 SEAARTVKC],0

row,Binder,iScore
1,LNLSGSRLD [5T4 9-mer peptide 62 LNLSGSRLD],0
2,PALCECSEA [5T4 9-mer peptide 32 PALCECSEA],0
3,GAFARRPPL [5T4 9-mer peptide 55 GAFARRPPL],0
4,VKCVNRNLT [5T4 9-mer peptide 38 VKCVNRNLT],0
5,VRNLFLTGN [5T4 9-mer peptide 47 VRNLFLTGN],0
6,NLFLTGNQL [5T4 9-mer peptide 48 NLFLTGNQL],0
7,VPTDLPAYV [5T4 9-mer peptide 43 VPTDLPAYV],0.098
8,FARRPPLAE [5T4 9-mer peptide 56 FARRPPLAE],0
9,CVNRNLTEV [5T4 9-mer peptide 39 CVNRNLTEV],0
10,LAVLPAGAF [5T4 9-mer peptide 52 LAVLPAGAF],0
11,LAELAALNL [5T4 9-mer peptide 59 LAELAALNL],0
12,PPLAELAAL [5T4 9-mer peptide 58 PPLAELAAL],0
13,RLDEVRAGA [5T4 9-mer peptide 65 RLDEVRAGA],0
14,RTVKCVNRN [5T4 9-mer peptide 37 RTVKCVNRN],0
15,NQLAVLPAG [5T4 9-mer peptide 51 NQLAVLPAG],0
16,QCPALCECS [5T4 9-mer peptide 31 QCPALCECS],0
17,PAGAFARRP [5T4 9-mer peptide 54 PAGAFARRP],0
18,LSGSRLDEV [5T4 9-mer peptide 63 LSGSRLDEV],0

# Biological target: T4, MHC class I molecule A*0201 (biotin (bound to streptavidin-coated plate))
# T4 construct: also called A2; HLA-A2
# Assay: iTopia iScore
# Protocol: as §1, §2
row,Binder,iScore
1,ELAALNLSG [5T4 9-mer peptide 60 ELAALNLSG],0.075
2,AARTVKCVN [5T4 9-mer peptide 36 AARTVKCVN],0.115
3,TGNQLAVLP [5T4 9-mer peptide 50 TGNQLAVLP],0.044
4,ECSEAARTV [5T4 9-mer peptide 34 ECSEAARTV],0
5,NRNLTEVPT [5T4 9-mer peptide 40 NRNLTEVPT],0
6,LCECSEAAR [5T4 9-mer peptide 33 LCECSEAAR],0
7,FLTGNQLAV [5T4 9-mer peptide 49 FLTGNQLAV],0.791
8,GSRLDEVRA [5T4 9-mer peptide 64 GSRLDEVRA],0.13
9,AYVRNLFLT [5T4 9-mer peptide 46 AYVRNLFLT],0.18
10,LPAYVRNLF [5T4 9-mer peptide 45 LPAYVRNLF],0
11,AALNLSGSR [5T4 9-mer peptide 61 AALNLSGSR],0
12,TEVPTDLPA [5T4 9-mer peptide 42 TEVPTDLPA],0
13,RRPPLAELA [5T4 9-mer peptide 57 RRPPLAELA],0
14,PDQCPALCE [5T4 9-mer peptide 30 PDQCPALCE],0
15,NLTEVPTDL [5T4 9-mer peptide 41 NLTEVPTDL],0.253
16,VLPAGAFAR [5T4 9-mer peptide 53 VLPAGAFAR],0.081
17,TDLPAYVRN [5T4 9-mer peptide 44 TDLPAYVRN],0
18,SEAARTVKC [5T4 9-mer peptide 35 SEAARTVKC],0

row,Binder,iScore
1,LNLSGSRLD [5T4 9-mer peptide 62 LNLSGSRLD],0
2,PALCECSEA [5T4 9-mer peptide 32 PALCECSEA],0.082
3,GAFARRPPL [5T4 9-mer peptide 55 GAFARRPPL],0.222
4,VKCVNRNLT [5T4 9-mer peptide 38 VKCVNRNLT],0
5,VRNLFLTGN [5T4 9-mer peptide 47 VRNLFLTGN],0
6,NLFLTGNQL [5T4 9-mer peptide 48 NLFLTGNQL],0.107
7,VPTDLPAYV [5T4 9-mer peptide 43 VPTDLPAYV],0.059
8,FARRPPLAE [5T4 9-mer peptide 56 FARRPPLAE],0.042
9,CVNRNLTEV [5T4 9-mer peptide 39 CVNRNLTEV],0.05
10,LAVLPAGAF [5T4 9-mer peptide 52 LAVLPAGAF],0.074
11,LAELAALNL [5T4 9-mer peptide 59 LAELAALNL],0.72
12,PPLAELAAL [5T4 9-mer peptide 58 PPLAELAAL],0.075
13,RLDEVRAGA [5T4 9-mer peptide 65 RLDEVRAGA],0.422
14,RTVKCVNRN [5T4 9-mer peptide 37 RTVKCVNRN],0
15,NQLAVLPAG [5T4 9-mer peptide 51 NQLAVLPAG],0.22
16,QCPALCECS [5T4 9-mer peptide 31 QCPALCECS],0
17,PAGAFARRP [5T4 9-mer peptide 54 PAGAFARRP],0
18,LSGSRLDEV [5T4 9-mer peptide 63 LSGSRLDEV],0.075
